In PMC2425476 (Nucleic Acids Research, 2008):
Where two headings read alike, the source gives them in different places.

Assays:
[1] = target: the molecule itself
δW279Y-γ complex;β clamp [2] = target: T1, δW279Y-γ complex;β clamp (Escherichia coli;Escherichia coli, UniProt P06710-2;P28630;P28631;P28905;P28632;P0A988 1-431;1-343;1-334;1-147;1-137;1-366, W279Y|); experiment: fluorescence anisotropy
δW279Y-γ complex;β clamp [3] = target: T1, δW279Y-γ complex;β clamp; experiment: fluorescence anisotropy; remark: listed apart in the source
δW279A-γ complex;β clamp = δW279A-γ complex;β clamp (Escherichia coli;Escherichia coli, UniProt P06710-2;P28630;P28631;P28905;P28632;P0A988 1-431;1-343;1-334;1-147;1-137;1-366, W279A|); experiment: fluorescence anisotropy
[4] = target: γ complex (clamp loader, γ3δδ'χψ), wild type;β clamp (Escherichia coli;Escherichia coli, UniProt P06710-2;P28630;P28631;P28905;P28632;P0A988 1-431;1-343;1-334;1-147;1-137;1-366, |); experiment: fluorescence anisotropy
[5] = target: δW279A/R277A-γ complex;β clamp (Escherichia coli;Escherichia coli, UniProt P06710-2;P28630;P28631;P28905;P28632;P0A988 1-431;1-343;1-334;1-147;1-137;1-366, R277A;W279A|); experiment: fluorescence anisotropy
[6] = target: δW279A/R283A-γ complex;β clamp (Escherichia coli;Escherichia coli, UniProt P06710-2;P28630;P28631;P28905;P28632;P0A988 1-431;1-343;1-334;1-147;1-137;1-366, W279A;R283A|); experiment: fluorescence anisotropy

B1: γ subunit of the E. coli clamp loader (γ complex) (natural protein)
chain: MSYQVLARKWRPQTFADVVGQEHVLTALANGLSLGRIHHAYLFSGTRGVGKTSIARLLAKGLNCETGITATPCGVCDNCREIEQGRFVDLIEIDAASRTKVEDTRDLLDNVQYAPARGRFKVYLIDEVHMLSRHSFNALLKTLEEPPEHVKFLLATTDPQKLPVTILSRCLQFHLKALDVEQIRHQLEHILNEEHIAHEPRALQLLARAAEGSLRDALSLTDQAIASGDGQVSTQAVSAMLGTLDDDQALSLVEAMVEANGERVMALINEAAARGIEWEALLVEMLGLLHRIAMVQLSPAALGNDMAAIELRMRELARTIPPTDIQLYYQTLLIGRKELPYAPDRRMGVEMTLLRALAFHPRMPLPEPEVPRQSFAPVAPTAVMTPTQVPPQPQSAPQQAPTVPLPETTSQVLAARQQLQRVQGATKAKKE
Q: Does B1 bind [1]?
A: binds

B2: 30 nt/55 nt p/tDNA (mixed)
DNA 1: TGAGCGTTTTTCCTGTTGCAATGGCTGGCGGTAATATTGTTCTGGATATTACCAG
DNA 2: CTGGTAATATCCAGAACAATATTACCGCCA
modifications: 5' amino linker on template (S2)
Q: For B2, which Kd (δW279Y-γ complex;β clamp [2]) is on record?
A: ~800 nM

Q: And the Kd (δW279Y-γ complex;β clamp [3])?
A: 159 ± 15 nM

Q: And the Kd (δW279A-γ complex;β clamp)?
A: 590 ± 80 nM

Q: What about the Kd [4] of the same binder?
A: 60 ± 10 nM

Q: Does B2 bind [5]?
A: no binding

Q: Does B2 bind [6]?
A: no binding
